Test results from PMC7373317, “Structural basis of human full-length kindlin-3 homotrimer in an auto-inhibited state” (PLoS Biology, 2020).

T1: human full-length kindlin-2, from Sf9 insect cells (monomer) (human), Q96AC1
T1 chain: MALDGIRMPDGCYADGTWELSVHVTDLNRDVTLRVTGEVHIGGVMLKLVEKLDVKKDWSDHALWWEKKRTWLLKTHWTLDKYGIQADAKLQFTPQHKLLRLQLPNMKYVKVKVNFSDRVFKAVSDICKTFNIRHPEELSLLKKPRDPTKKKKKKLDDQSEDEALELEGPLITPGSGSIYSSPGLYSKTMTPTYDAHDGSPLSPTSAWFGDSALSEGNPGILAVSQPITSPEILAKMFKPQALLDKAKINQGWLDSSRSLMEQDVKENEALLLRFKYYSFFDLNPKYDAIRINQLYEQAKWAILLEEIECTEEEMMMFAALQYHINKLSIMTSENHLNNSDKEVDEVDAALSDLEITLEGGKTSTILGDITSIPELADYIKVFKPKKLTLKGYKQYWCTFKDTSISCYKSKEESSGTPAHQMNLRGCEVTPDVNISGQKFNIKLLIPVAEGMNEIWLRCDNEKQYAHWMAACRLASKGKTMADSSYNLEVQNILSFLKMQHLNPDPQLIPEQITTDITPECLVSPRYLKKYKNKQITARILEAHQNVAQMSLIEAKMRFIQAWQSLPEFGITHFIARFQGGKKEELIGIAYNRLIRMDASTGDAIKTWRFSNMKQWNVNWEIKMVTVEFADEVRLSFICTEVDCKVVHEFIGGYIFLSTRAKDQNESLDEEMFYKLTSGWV


Experiments:
[1] = target: human full-length kindlin-3, wild type, from Sf9 insect cells (monomer) (human, UniProt Q86UX7 1-667); experiment: ITC; MicroCal PEAQ-ITC, 25 °C, 50 mM HEPES pH 7.5, 150 mM NaCl; 500 μM ITGB1 tail injected into 50 μM monomer or trimer kindlin; settings: both partners purified
human full-length kindlin-3, wild type, from Sf9 insect cells (monomer), sequence (Q86UX7 whole entry): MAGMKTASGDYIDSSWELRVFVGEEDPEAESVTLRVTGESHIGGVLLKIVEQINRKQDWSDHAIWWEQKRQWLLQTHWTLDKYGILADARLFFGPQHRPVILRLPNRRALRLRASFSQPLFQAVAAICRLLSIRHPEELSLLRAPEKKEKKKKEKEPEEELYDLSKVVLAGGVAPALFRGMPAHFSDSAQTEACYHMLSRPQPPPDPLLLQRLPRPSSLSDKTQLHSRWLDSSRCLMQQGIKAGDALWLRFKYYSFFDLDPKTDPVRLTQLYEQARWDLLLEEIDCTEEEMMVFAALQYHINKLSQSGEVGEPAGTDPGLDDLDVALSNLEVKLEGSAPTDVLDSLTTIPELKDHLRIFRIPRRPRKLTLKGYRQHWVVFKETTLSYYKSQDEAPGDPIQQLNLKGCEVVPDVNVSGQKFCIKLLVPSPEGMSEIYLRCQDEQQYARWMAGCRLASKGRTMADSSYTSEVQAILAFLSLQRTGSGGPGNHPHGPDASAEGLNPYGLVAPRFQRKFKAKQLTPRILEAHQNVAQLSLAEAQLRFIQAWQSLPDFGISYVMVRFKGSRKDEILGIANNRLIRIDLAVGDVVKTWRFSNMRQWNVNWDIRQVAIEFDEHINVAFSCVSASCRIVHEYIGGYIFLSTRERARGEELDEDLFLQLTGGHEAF

[2] = target: human full-length kindlin-2, from Sf9 insect cells (monomer) (human) (UniProt Q96AC1); experiment: as above
[3] = target: T1, human full-length kindlin-2, from Sf9 …; experiment: SEC; analytical gel filtration, Superdex 200 Increase 10/300 GL, 20 mM Tris-HCl pH 7.5, 150 mM NaCl, calibrated with HMW kit; settings: remark: other sources report otherwise
[4] = target: T1, human full-length kindlin-2, from Sf9 …; experiment: SEC-MALS; Superdex 200 increase 5/150 GL, 20 mM HEPES pH 7.5, 500 mM NaCl, at least 2 mg/mL; settings: remark: other sources report otherwise

| Kd [1] [µM] | Kd [2] [µM] | stoichiometry N [3] | stoichiometry N [4] | Binder |
| --- | --- | --- | --- | --- |
| ~200 | 13.4 | – | – | AKWDTGENPIYKSAVTTVVNPKYEGK (domain or fragment, UniProt P05556-1 773-798, looked up, integrin beta-1, human, cytoplasmic tail residues 773-798; pNH-TrxT, N-terminal cleavable 6xHis thioredoxin tag; no cleavage step is described and the ITC control was the His-Trx tag alone, so the tag was probably kept (surmise); also called ITGB1 tail; integrin β1 tail) [human integrin β1 cytoplasmic tail (ITGB1 residues 773–798)] |
| – | – | 3 | 3 | human full-length kindlin-2, from Sf9 insect cells (monomer), Q96AC1 1-680 (natural protein) MALDGIRMPDGCYADGTWELSVHVTDLNRDVTLRVTGEVHIGGVMLKLVEKLDVKKDWSDHALWWEKKRTWLLKTHWTLDKYGIQADAKLQFTPQHKLLRLQLPNMKYVKVKVNFSDRVFKAVSDICKTFNIRHPEELSLLKKPRDPTKKKKKKLDDQSEDEALELEGPLITPGSGSIYSSPGLYSKTMTPTYDAHDGSPLSPTSAWFGDSALSEGNPGILAVSQPITSPEILAKMFKPQALLDKAKINQGWLDSSRSLMEQDVKENEALLLRFKYYSFFDLNPKYDAIRINQLYEQAKWAILLEEIECTEEEMMMFAALQYHINKLSIMTSENHLNNSDKEVDEVDAALSDLEITLEGGKTSTILGDITSIPELADYIKVFKPKKLTLKGYKQYWCTFKDTSISCYKSKEESSGTPAHQMNLRGCEVTPDVNISGQKFNIKLLIPVAEGMNEIWLRCDNEKQYAHWMAACRLASKGKTMADSSYNLEVQNILSFLKMQHLNPDPQLIPEQITTDITPECLVSPRYLKKYKNKQITARILEAHQNVAQMSLIEAKMRFIQAWQSLPEFGITHFIARFQGGKKEELIGIAYNRLIRMDASTGDAIKTWRFSNMKQWNVNWEIKMVTVEFADEVRLSFICTEVDCKVVHEFIGGYIFLSTRAKDQNESLDEEMFYKLTSGWV |
